Patent publication US20100233154A1, “TARGETED BINDING AGENTS DIRECTED TO HEPARANASE AND USES THEREOF 463” (MedImmune Limited, priority 2008, published 2010)

Legend:
Recombinant Hpa1 = target: T1, Recombinant Hpa1 (Homo sapiens, UniProt Q9Y251); assay: Medium resolution Biacore affinity; type: binding; details: purified antibody captured on CM4 chip; Hpa1 1 nM and 10 nM; 25° C.
T1 construct: Heparanase 8 and 50 kDa sub-units were cloned into pacGP67 as Sma 1-EcoR1 fragments; made in house; host or cells: Hi5 insect cells, baculovirus (pFastBac Dual)
T1 sequence (Q9Y251 158-543 limits assumed): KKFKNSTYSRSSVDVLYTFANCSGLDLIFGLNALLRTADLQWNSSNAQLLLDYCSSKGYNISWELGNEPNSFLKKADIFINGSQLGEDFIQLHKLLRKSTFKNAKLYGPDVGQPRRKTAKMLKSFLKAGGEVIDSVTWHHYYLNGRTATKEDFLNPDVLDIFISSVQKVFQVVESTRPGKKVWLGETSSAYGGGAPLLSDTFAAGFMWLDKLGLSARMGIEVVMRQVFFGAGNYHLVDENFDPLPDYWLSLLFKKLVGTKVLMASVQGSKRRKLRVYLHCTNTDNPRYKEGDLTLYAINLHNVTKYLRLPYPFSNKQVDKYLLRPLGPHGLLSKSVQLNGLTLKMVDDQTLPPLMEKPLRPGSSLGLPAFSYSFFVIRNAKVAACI
T1 sequence (Q9Y251 36-109 limits assumed): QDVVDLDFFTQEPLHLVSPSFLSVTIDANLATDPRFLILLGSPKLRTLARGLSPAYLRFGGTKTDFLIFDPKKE
Experimental: For medium resolution Biacore™ tests, cloned and purified antibodies were used. Each of three purified antibodies (10E9.1, 15A1.2, and 15A11.1) were captured onto a high-density goat anti-human antibody surface over a CM4 Biacore™ chip. Recombinant Hpa1 was diluted to the desired concentration (1 nM and 10 nM) in 10 mM HEPES, 150 mM NaCl, 0.005% tween-20, 0.1 mg per ml BSA pH7.4 (25° C.) immediately prior to injection. Data were fit globally to a 1:1 interaction model with a term for mass transport included. The resulting KD values are summarised below in Table 4.

MCF7-Hpa1#19 cells = assay: Accumulation of precursor heparanase in conditioned medium and cell lysates (Western blot); type: cell-based, human; details: 25 μg per ml, 24 hrs
Experimental: MCF7-Hpa1#19 cells were cultured until confluent and then grown overnight (˜12 hrs) at 37° C. in serum free medium. Following overnight incubation, culture medium was replaced with serum free medium containing 25 μg per ml anti-heparanase monoclonal antibody 10E9.1 or a control IgG2 antibody (Sigma Cat. No. 1504-1MG) and incubated for a further 24 hrs at 37° C. Cell cultures were then treated for 2 hrs with PMA 0.1-10 μM, to stimulate heparanase expression (Sasaki N et al, J Immunol. 172: 3830, 2004). Conditioned medium from the cultures was harvested and concentrated 10-fold and protein lysates in RIPA buffer were prepared from the cells. Proteins from conditioned medium or cell lysates were separated on […] gels as described previously and heparanase was detected using an anti-heparanase polyclonal antibody (Biochain Cat. No. Z5010104).

HCT116 xenograft = assay: Subcutaneous xenograft tumour growth, HCT116; type: in vivo, SCID mice; details: once weekly i.p.; 10E9.1 at 15 mg per kg
Experimental: MCF7-Hpa1#19 and HCT116 tumour cells were harvested from sub-confluent cultures. A total of 5×10^6 (MCF7-Hpa1#19) or 10^7 (HCT116) tumour cells were inoculated subcutaneously into the flank of male SCID mice. HCT116 tumour cells were implanted in PBS; […] cells were implanted in PBS containing 50% matrigel.
When tumours had attained ˜200 mm^3, tumour bearing mice were randomised into treatment groups and dosed with the following; PBS; an isotype matched control IgG2 antibody, 15 mg per kg; anti-heparanase antibody 10E9.1, 7.5 or 15 mg per kg. All treatments were administered once weekly i.p. Tumour growth was measured twice per week using calipers and tumour volumes calculated according to an ellipsoid volume is formula (3.142/6×length×width×width) from measures of the largest tumour diameter and two opposing widths (FIG. 11).

- ka (Recombinant Hpa1): 2.06e+06 M⁻¹ s⁻¹
- kd (Recombinant Hpa1): 0.000112 s⁻¹
B1: 10E9.1: fully human anti-heparanase monoclonal antibody, G2κ; VH SEQ ID NO 2, VL SEQ ID NO 4; ATCC PTA-9489 (antibody, listed as Homo Sapiens, V domains shown)
VH: QVQLVQSGAEVKKPGASVKVSCKVSGYSLTELSIHWVRQAPGKGLEWMGGFDPEDGEIIFAQKFQGRVTLTEDISLDTAYMEVSSLRSEDTAVYYCATEGHDSGDYVGYYYYGLDVWGQGTTVTVSS
VL: DIQMTQSPSSLSASVGDRVTITCRASQDIRNFLAWYQQKPGKLPKLLIYAASTLQSGVPSRFSGSGSGTDFTLTISSLQPEDVASYYCQSHNSVPFTFGPGTKVDIR
notes: fully human anti-heparanase monoclonal antibody, G2κ; ATCC PTA-9489
- Accumulation of precursor (65 kDa) heparanase in the culture medium (MCF7-Hpa1#19 cells; compared to control IgG2): accumulation of precursor (65 kDa) heparanase in the culture medium
- PMA-stimulated increase in intracellular heparanase (MCF7-Hpa1#19 cells; then PMA 0.1-10 μM 2 hrs): appeared to be attenuated
- Tumour growth inhibition (HCT116 xenograft): not inhibited
